Several values for one entry are separate records, joined by “and”; a condition that tells them apart may be missing. Identical values can stand only once.
Experiments:
zebavidin [1] = biological target: T1, zebavidin (Danio rerio, UniProt E7F650); assay: crystal structure at […] Å; direct and competitive ITC ([…] °C); [3H]biotin dissociation; native MS; DSC; format: binding; set-up: gene avd; first 30 amino acids of the ORF replaced with OmpA signal peptide from Bordetella avium (secreted core); homotetramer
T1 sequence (E7F650 31-154): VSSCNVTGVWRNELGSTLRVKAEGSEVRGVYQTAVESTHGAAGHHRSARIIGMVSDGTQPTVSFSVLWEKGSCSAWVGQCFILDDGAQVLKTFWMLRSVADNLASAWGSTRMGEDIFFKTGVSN

zebavidin [2] = biological target: T1, zebavidin; assay: ITC ([…] °C); format: binding; set-up: gene avd; first 30 amino acids of the ORF replaced with OmpA signal peptide from Bordetella avium (secreted core)
zebavidin [3] = biological target: T1, zebavidin; assay: fluorescence quenching titration ([…] °C); format: binding; set-up: gene avd; first 30 amino acids of the ORF replaced with OmpA signal peptide from Bordetella avium (secreted core)
[4] = biological target: zebavidin (recombinant core, expressed in E. coli) (zebrafish (Danio rerio)); assay: native MS; ESI FT-ICR, 10 µM zebavidin in 500 mM ammonium acetate, in the absence and presence of 30 µM biotin
[5] = biological target: zebavidin (recombinant core, expressed in E. coli) (zebrafish (Danio rerio)); assay: native MS; ESI FT-ICR, 10 µM zebavidin (monomer) in 10 mM ammonium acetate, pH 7, without biotin
[6] = biological target: zebavidin (recombinant core, expressed in E. coli) (zebrafish (Danio rerio)); assay: native MS; ESI FT-ICR, 10 µM zebavidin in 10 mM ammonium acetate, pH 7, with 30 µM biotin (3-fold molar excess)
[7] = biological target: zebavidin (recombinant core, expressed in E. coli) (zebrafish (Danio rerio)); assay: crystal structure; zebavidin in complex with biotin, 2.4 Å, space group P2(1)2(1)2, 16 monomers (four homotetramers) in the asymmetric unit
[8] = biological target: zebavidin (recombinant core, expressed in E. coli) (zebrafish (Danio rerio)); assay: SEC; Superdex200 10/300GL, 4 °C, 50 mM sodium phosphate, 2 mM EDTA, pH 7 with 0, 100 or 650 mM NaCl, with and without biotin

Compound: O=C(O)CCCC[C@@H]1SC[C@@H]2NC(=O)N[C@@H]21 [BTN, biotin]
- Kd (zebavidin [1]): 4.8/4.4 x10^-9 M

Compound: C[C@@H]1NC(=O)N[C@@H]1CCCCCC(=O)O [desthiobiotin]
- Kd (zebavidin [2]): 660/700 x10^-9 M

Compound: ArcDia BF560
- Kd (zebavidin [3]): 140 nM

Compound: zebavidin (recombinant core, expressed in E. coli) (natural protein)
- stoichiometry N [4]: 4
- stoichiometry N [5]: 2 and 4
- stoichiometry N [6]: 4
- stoichiometry N [7]: 4
- stoichiometry N [8]: 4

Source: article PMC3811995, “Zebavidin - An Avidin-Like Protein from Zebrafish” (PLoS ONE, 2013)
